Assay results: article PMC3026807

Target: His221 (UniProt position 221, RKPFYHAFSFM)
Assay: electrophysiology
Conditions: Symmetrical high K+. Bath: standard solution with Na+ replaced equimolarly by K+ (140 mM extracellular K+). Pipette: 140 mM KCl.; 10 mM Hepes/Tris; MES for pH 5.0-6.5, AMPSO for pH 8.5-9.0, CAPS for pH 9.5-11.0; pHo gating in high symmetrical K+ (needed to restore currents of the double mutant)

In the case of “TASK-3 (K2P9.1, KCNK9) H98N/V221H double mutant (Cavia porcellus; H98N;V221H)”, the pKa is reported as 6.86±0.11.
